From the supplement of paper PMC10567573

B1: TOR1AIP2 (parent)
chain: YTSSQKVSPIQIDGAGRTWQDSDT

Variants of: B1
Assay: protein stability index of a GFP-peptide fusion (GPS, HEK-293T) (PSI 1-6); higher = more stable
Conditions: c terminus: a fixed tail appended
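Also: lentivirally expressed fusions sorted by FACS into six bins by GFP to DsRed ratio, PSI derived from sequencing read proportions per bin multiplied by bin number.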

Row | Variant | protein stability index
1 | Q5E | 4.2
2 | Q5N | 3.04
3 | Q5V | 3.31
4 | Q5G | 3.38
5 | Q5K | 3.45
6 | Q5D | 4.04
7 | Q5Y | 2.34
8 | Q5H | 2.87
9 | Q5T | 3.6
10 | Q5S | 3.87
11 | Q5I | 3.12
12 | T2E | 4.74
13 | T2M | 3.9
14 | T2C | 2.46
15 | T2K | 4.83
16 | T2L | 3.94
17 | T2I | 2.58
18 | T2P | 3.93
19 | T2R | 4.72
20 | T2H | 2.14
21 | T2N | 4.41
22 | T2S | 4.31
23 | Q20S | 3.69
24 | Q20Y | 2.84

Row | Variant | protein stability index
25 | Q20E | 4.31
26 | Q20K | 3.16
27 | Q20R | 2.62
28 | Q20T | 3.03
29 | Q20W | 2.01
30 | Q20G | 3.08
31 | Q20V | 3.54
32 | Q20M | 2.75
33 | Q20F | 2.62
34 | Q20N | 4.09
35 | Q20D | 3.79
36 | Q20A | 3.43
37 | S3W | 3.04
38 | S3T | 3.08
39 | S3M | 3.01
40 | S3A | 3
41 | S3P | 2.57
42 | S3G | 3.61
43 | S3K | 3.82
44 | S3H | 4.38
45 | S3I | 3.13
46 | S3Q | 3.82
47 | S3F | 2.95
48 | T24E | 5

Row | Variant | protein stability index
49 | T24H | 3.51
50 | T24R | 2.95
51 | T24S | 3.85
52 | T24M | 2.58
53 | T24Q | 2.63
54 | T24D | 4.12
55 | T24Y | 2.17
56 | T24N | 3.15
57 | T24W | 2.87
58 | T24A | 3.08
59 | R17N | 3.02
60 | R17G | 3.63
61 | R17P | 4.25
62 | R17K | 3.54
63 | R17T | 3.6
64 | R17E | 4.4
65 | R17F | 2.33
66 | R17C | 3.66
67 | R17Y | 3.02
68 | R17H | 2.24
69 | R17W | 2.32
70 | R17M | 2.18
71 | D21Q | 2.45
72 | D21K | 3.46

Row | Variant | protein stability index
73 | D21N | 3.29
74 | D21L | 2.46
75 | D21R | 2.6
76 | D21H | 2.34
77 | D21T | 2.62
78 | D21P | 2.81
79 | D21S | 2.95
80 | D21M | 2.36
81 | D21Y | 2.43
82 | D13Y | 1.96
83 | D13V | 2.39
84 | D13T | 2.87
85 | D13C | 2.79
86 | D13E | 3.33
87 | D13A | 3.2
88 | D13F | 1.67
89 | D13N | 3.15
90 | D13S | 2.86
91 | D13M | 2.21
92 | D13Q | 3.27
93 | D13K | 2.77
94 | D13P | 2.87
95 | W19D | 4.39
96 | W19G | 3.74

Row | Variant | protein stability index
97 | W19F | 3.92
98 | W19N | 4.04
99 | W19Y | 4.08
100 | W19R | 4.13
101 | W19P | 4.67
102 | W19I | 3.96
103 | W19E | 4.86
104 | W19L | 4.11
105 | W19V | 4.56
106 | W19Q | 4.57
107 | W19K | 4.56
108 | A15S | 2.95
109 | A15F | 2.45
110 | A15G | 3.04
111 | A15N | 3.71
112 | A15H | 2.6
113 | A15P | 2.99
114 | A15R | 2.56
115 | A15W | 1.67
116 | A15C | 3.03
117 | A15E | 3.52
118 | A15I | 3.25
119 | A15Q | 3.35
120 | A15T | 3.36

Row | Variant | protein stability index
121 | A15V | 2.82
122 | S4D | 4.57
123 | S4Y | 2.67
124 | S4M | 2.65
125 | S4C | 2.78
126 | S4I | 2.92
127 | S4N | 3.65
128 | S4G | 3.59
129 | S4F | 2.58
130 | S4H | 3.37
131 | S4E | 3.35
132 | P9L | 3.74
133 | P9V | 2.66
134 | P9G | 3.45
135 | P9Q | 3.44
136 | P9Y | 2.22
137 | P9K | 3.71
138 | P9N | 3.49
139 | P9A | 3.34
140 | P9S | 4.38
141 | S8R | 2.67
142 | S8Q | 3.17
143 | S8K | 3.46
144 | S8A | 3.52

Row | Variant | protein stability index
145 | S8G | 3.25
146 | S8C | 3.12
147 | S8I | 2.35
148 | S8V | 2.67
149 | S8T | 3.36
150 | S8W | 3.33
151 | S22W | 2.85
152 | S22Q | 3.64
153 | S22D | 4.55
154 | S22H | 3.06
155 | S22N | 3.55
156 | S22L | 2.35
157 | S22A | 4.18
158 | S22K | 2.95
159 | S22I | 3.12
160 | S22V | 3.17
161 | S22R | 3.29
162 | S22F | 2.71
163 | S22Y | 2.51
164 | S22G | 2.74
165 | S22E | 4.08
166 | S22T | 3.63
167 | Q11S | 3.73
